For orientation: Kd means the equilibrium constant for the complex coming apart. High values mean weaker binding, low ones tighter binding.

This passage reports Kd results from patent publication US20090011497 (published 2009).

This test has as its target T1, hu-MPL (human, UniProt P40238).
T1 chain: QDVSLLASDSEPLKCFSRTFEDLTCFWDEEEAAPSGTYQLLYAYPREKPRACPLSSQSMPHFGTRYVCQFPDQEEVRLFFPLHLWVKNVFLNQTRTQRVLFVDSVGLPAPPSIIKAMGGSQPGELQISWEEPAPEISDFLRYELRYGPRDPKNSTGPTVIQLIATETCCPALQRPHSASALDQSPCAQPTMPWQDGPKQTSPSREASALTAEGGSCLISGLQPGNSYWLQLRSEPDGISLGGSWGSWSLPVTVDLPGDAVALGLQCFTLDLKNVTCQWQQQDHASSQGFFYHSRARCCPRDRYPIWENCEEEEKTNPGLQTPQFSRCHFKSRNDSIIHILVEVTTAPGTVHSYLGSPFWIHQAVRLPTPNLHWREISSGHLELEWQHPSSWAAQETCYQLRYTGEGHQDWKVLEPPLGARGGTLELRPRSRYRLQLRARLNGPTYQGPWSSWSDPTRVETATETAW
In words: SPR. Background: Surface plasmon resonance follows binding to a sensor surface in real time, without labels.

YCDEGPTLKQWLVCLGLQ [TMP20] gave a Kd of 0.56 nM.
